Consider 3 molecules from patent publication US20240294650A1 (Alector, published 2024).

In experiment [1] the target is T1, Full Axl (ECD domain of human Axl) (human, UniProt P30530 26-451).
T1 construct: also called human Axl ECD
T1 sequence: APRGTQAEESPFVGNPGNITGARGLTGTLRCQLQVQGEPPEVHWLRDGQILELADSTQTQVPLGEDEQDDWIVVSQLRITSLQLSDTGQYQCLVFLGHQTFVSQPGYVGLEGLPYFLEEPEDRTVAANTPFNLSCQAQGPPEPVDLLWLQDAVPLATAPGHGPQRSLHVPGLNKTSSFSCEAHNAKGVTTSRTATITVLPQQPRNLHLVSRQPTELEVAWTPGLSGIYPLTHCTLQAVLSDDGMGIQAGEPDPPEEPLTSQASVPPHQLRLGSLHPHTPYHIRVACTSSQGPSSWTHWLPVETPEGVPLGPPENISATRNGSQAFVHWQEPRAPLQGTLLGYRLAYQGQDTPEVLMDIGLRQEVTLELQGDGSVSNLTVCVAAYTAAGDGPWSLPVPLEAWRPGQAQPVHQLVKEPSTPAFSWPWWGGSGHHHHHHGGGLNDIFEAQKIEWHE
In words: SPR (data not shown). In short, it runs like this: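 Epitope domain mapping by SPR with antibody captured via amine coupling and construct supernatants as analyte (1:1 dilution, 0.5 mg/mL BSA in running buffer). Scoring relied on binding lost or gained across MerTK/Axl swaps.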

The target in experiment [2] is T2, Recombinant human MerTK-human Fc Chimera protein (human, UniProt Q12866 26-499, limits assumed).
T2 construct: bought construct; also called MerTK-Fc (R&D systems, Cat #391-MR-100)
T2 sequence: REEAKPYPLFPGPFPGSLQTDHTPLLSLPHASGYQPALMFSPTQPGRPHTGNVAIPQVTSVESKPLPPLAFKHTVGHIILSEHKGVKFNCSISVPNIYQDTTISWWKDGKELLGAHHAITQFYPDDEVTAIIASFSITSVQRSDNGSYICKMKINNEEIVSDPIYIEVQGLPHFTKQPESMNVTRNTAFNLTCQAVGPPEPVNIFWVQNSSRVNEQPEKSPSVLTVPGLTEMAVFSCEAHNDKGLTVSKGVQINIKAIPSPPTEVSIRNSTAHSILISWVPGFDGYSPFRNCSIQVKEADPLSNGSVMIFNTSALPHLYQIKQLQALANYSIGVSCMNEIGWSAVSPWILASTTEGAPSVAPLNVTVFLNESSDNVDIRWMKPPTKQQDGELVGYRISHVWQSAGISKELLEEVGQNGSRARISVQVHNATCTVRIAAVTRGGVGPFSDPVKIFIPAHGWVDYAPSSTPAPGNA
In words: blocking ELISA, Gas6-His on MerTK-Fc, Ab 66.6 nM, isotype=100%. In short, it runs like this: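 MerTK-Fc (2 μg/ml) was captured on plate-bound anti-human IgG, then co-incubated 1 h with anti-MerTK antibody (final 66.6 nM to 4 pM) plus His-tagged Gas6 added at 3 μg/ml or His-tagged ProS added at 20 μg/ml. Bound ligand was detected with HRP anti-His, TMB and OD.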
Background: ELISA stands for enzyme-linked immunosorbent assay.

The target in another experiment is T3, human MerTK (human, UniProt Q12866 21-999).
T3 sequence: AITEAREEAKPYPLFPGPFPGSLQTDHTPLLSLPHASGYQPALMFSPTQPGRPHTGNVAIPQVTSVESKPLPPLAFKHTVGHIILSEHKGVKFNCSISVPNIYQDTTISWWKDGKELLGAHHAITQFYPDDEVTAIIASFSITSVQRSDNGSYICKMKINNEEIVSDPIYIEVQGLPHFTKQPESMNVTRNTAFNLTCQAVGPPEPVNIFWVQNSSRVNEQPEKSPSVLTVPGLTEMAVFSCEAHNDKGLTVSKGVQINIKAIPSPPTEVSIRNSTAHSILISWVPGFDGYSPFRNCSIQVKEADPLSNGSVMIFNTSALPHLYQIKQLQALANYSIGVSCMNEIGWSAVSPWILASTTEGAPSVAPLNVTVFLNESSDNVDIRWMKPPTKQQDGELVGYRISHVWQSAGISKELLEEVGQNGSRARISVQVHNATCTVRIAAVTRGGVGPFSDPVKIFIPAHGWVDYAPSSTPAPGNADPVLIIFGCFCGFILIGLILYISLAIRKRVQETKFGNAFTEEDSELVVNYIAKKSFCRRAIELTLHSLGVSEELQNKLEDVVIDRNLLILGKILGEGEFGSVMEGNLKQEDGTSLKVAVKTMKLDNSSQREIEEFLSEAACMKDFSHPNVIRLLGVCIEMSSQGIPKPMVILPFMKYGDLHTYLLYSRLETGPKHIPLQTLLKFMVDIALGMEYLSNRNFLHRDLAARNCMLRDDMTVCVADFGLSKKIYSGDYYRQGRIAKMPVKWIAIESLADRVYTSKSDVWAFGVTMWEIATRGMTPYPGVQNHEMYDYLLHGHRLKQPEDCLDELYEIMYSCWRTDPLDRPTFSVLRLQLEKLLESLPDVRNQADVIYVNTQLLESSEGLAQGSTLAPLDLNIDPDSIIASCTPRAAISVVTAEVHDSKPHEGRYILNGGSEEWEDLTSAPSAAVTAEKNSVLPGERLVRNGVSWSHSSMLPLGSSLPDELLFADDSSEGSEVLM
In words: cell-based or functional assay.

B1: MTK-225 (antibody, human IgG1, V domains shown)
VH: EVQLQQSGPELVKPGASVKIFCKASGYTFTAYNMDWVKQSHGKSLEWIGDINPNNGGTIYNQKFKGKATLTVDKSSSTAYMELRSLTSEDTAVYYCARRRRYGNTYYWYFDVWGTGTTVTVSS
VL: DIQMTQSPASLSVSVGETVTITCRASENIYSSLAWYQQKQGKSPQLLVYAATNLADGVPSRFSGSGSGTQFYLKINGLQSEDFGSYYCQHFWGTSYTFGGGTKLEIK
For B1, in experiment [1], the binding result was “no binding”. The “Percent Gas6 ligand binding” value in experiment [2] worked out at 120%. For the same molecule, the “Fold increase in PAKT over IgG control” value in the experiment with human MerTK stood at 4.5 fold.

B2: MTK-231 (antibody, human IgG1, V domains shown)
VH: DVQLQESGPGLVKPSQSLSLTCSVTGYSITSGYYWNWIRQFPGNKLEWMGYISYDGTYNYHPSLKNRISITRDTSKNQFFLTLNSVTTEDTATFYCTRGGGYWGQGTSVTVSS
VL: DVVMTQTPLSLPVSLGDQASISCRSSQSLVHSDGNTYLHWYLQKPGQSPKLLIYKVSNRFSGVPDRFSGSGSGTDFTLKISRLEAEDLGIYFCSQTTHIPLTFGSGTKLEIK
On to B2, for which the binding result in experiment [1] is listed as “no binding”. The “Percent Gas6 ligand binding” value in experiment [2] is 116%. Also, in the experiment with human MerTK, the “EC50 (nM), pAKT in SK-MEL-5 cells” value worked out at 0.65 nM and the “Fold increase in PAKT over IgG control” value was 3 fold.

B3: MTK-221 (antibody, human IgG1, V domains shown)
VH: QVTLKESGPGMLQSSQTLSLTCSFSGFSLSTSGMGVSWIRQPSGKGLEWLAHIYWDDDKRYNTSLQSRLTISKDTSRNQVFLKITSVDTADTATYFCGRLGAYSAFPYYFDYWGQGTTLTVSS
VL: DIQMTQSPSSLSASLGGKVTITCKASQDIHKHIAWYQHKPGKGPRLLIHYTSTLQPGIPSRFSGSGSGRDYSFSISNLEPEDLATYYCLQYDNLWTFGGGTKLEIK
Take B3: the binding result in experiment [1] is given as “no binding”. Further, the “Percent Gas6 ligand binding” value in experiment [2] was found to be 106%. Also, in the experiment with human MerTK, the “Fold increase in PAKT over IgG control” value amounted to 4.4 fold.
